Conditions: N-glycosylation at N74

Row | Substance | enzymatic_activity | stability_or_folding
1 | Candida antarctica lipase B (CaLB): Asn74Ser, S. cerevisiae MTP culture supernatant, pNPB assay | decreases | 
2 | Candida antarctica lipase B (CaLB): Asn74Ala (CaLB-degl), purified free enzyme, pNPB assay | decreases, hydrolytic activity 10.49 to 7.57 µmol(min∙mg)−1 | 
3 | Candida antarctica lipase B (CaLB): Asn74Ala, S. cerevisiae MTP culture supernatant, pNPB assay | no change, 94% relative hydrolytic activity | 
4 | Candida antarctica lipase B (CaLB): Asn74Ala (CaLB-degl and CaLB-degl-lid), residual activity after 10 min heat incubation |  | decreases, >50% activity lost at 48 °C and almost inactive at 58 °C, vs 42% relative activity at 58 °C for wt
5 | Candida antarctica lipase B (CaLB): Asn74Ala (CaLB-degl), ε-caprolactone polymerization in aqueous toluene | increases, Free enzyme: Mn 1100 to 1900 Da, Coligo 13% to 29% (factor 1.7). Immobilized: Mn 5200 to 6700 Da, Coligo 86% to 91%. | 

From publication PMC6415414
